Measured values as given in the DeepSol protein solubility set.

Assay: soluble on expression in E. coli; label from the status in PepcDB or PDB records

Sequence | soluble on expression in E. coli
SLLKLAIPKGRLEEKVMTYLKKTGVIFERESSILREGKDIVCFMVRPFDVPTYLVHGVADIGFCGTDVLLEKETSLIQPFFIPTNISRMVLAGPKGRGIPEGEKRIATKFPNVTQRYCESKGWHCRIIPLKGSVELAPIAGLSDLIVDITETGRTLKENNLEILDEIFVIRTHVVVNPVSYRTKREEVVSFLEKLQEVIEHDSNEQSRGEGGSHHHHHH | soluble
MNDGKISILVLGADKAQGGQSRTDSIMVVQYDFINKKMKMMSVMRDIYADIPGYGKHKINSAYALGGPKLLRKTLDKNLGINPEYYAVVDFTGFEKMIDELMPEGVPINVEKDMSKNIGVSLKKGNHRLNGKELLGYARFRHDPEGDFGRVRRQQQVMQTLKKEMVNFRTVVKLPKVAGILRGYVNTNIPDSGIFQTGLSFGIRGEKDVKSLTVPIKNSYEDVNTNTDGSALQINKNTNKQAIKDFLDEDLEHHHHHH | soluble
AIAGGAVSAGQDNDELIDNLKEAQYIRTEAVEKAFRAIDRADYYLEEFKQNAYRDLAWKHGNIHLSAPCIYSEVMEALDLQPGLSFLNLGSGTGYLNTMAGLILGPFGINHGVEIHADVIEYAKEKLDLFVHTSDSFDRFDFCEPSFVAGNCLDIALDCMYDRVYCGAGVQKEHKEYMKNLIKVGGILVLPLEEKLTKITRTGPSSWETKKILAVSFAPLIQPDHVESAKSKSLQLPLPNIRSLQDLSRITIRRHIKKIVNQVPNGRGDGVMKNPPRYKRKRLRRRPLQTVVYLEEGGFACRIQNSFDDNNNCEGAGNCEGAGDDLAEKEEQGVSETKPNPPVNFLREKILCLPLPVPLKYYLLYYREK | soluble
MAHHHHHHMDKYTKVKNIGKGNMGTCTLARNNEDGKYYVIKQVDLTRMSKKDRQQSLNEARVLSSLRHPNIINYVDSFLARKSDNLCIVMEYAESGDVCTRLKKHYGVNVPERQVVDWLIQLVLSLDYVHQRKILHRDVKTQNIFLTHENLIKLGDFGIARTLANTYDQAQTFVGTPYYLSPELILEQPYDHRSDVWALGVVLYEMLTLKHPFNAKDMKGLLQRILAVHYDPLPTMYSAELRDIVARMLVRDPAGRIKLDEILQIPIVRERIRQWLKEPDVVPQHYVRSLCKHHLLPDFQDEATAMPSTRSAARAAAAMAHEEWRTTSEATSAQTDGDVCARKDTDTRPHVTLGGPFSIPSTAARTAAAVCTSSADEESSDGVRPSIPPLKPYSNLPQLGMASPQLYTPQLPQMHPRVQSNNRASSPSRLFRSPFSTPSVARSAALPISRQQGDPVSQSSPAPLPLQRPIARAKAPTRPYARPYVAQPHLSPSPGYLFAANPRKNPIDARRQQSSRPSGPYLNPLFAAPRQMAPAYRSLVPPLPPPPDIKAMLQRAAAERARR | not soluble
MGSDKIHHHHHHMKIAVLSGKGGTGKTLVAVNLAAAAQRSTYIDCDVEEPNGHLFFKPEILQEEEITVKIPRVEDTLCQGCRRCVDFCQFNALAYIKEKLLVFEDVCHSCGGCILLCPEKALTEQEKGIGKVQKGLSDQVRVYTGVLNIGEVSGVPIIKKLLNENKSDKNEPESDQLTFIDCPPGSACSVMESIKDADYCLLVAEPTLFGVHNLNMVHELVKIFNKPCGVVLNKSLEGENPAETFCLEKNIKILSRLPFDHELGRLNSNAEIAVRKSEPYKALFSALLETVTKEVQHETAAYS | not soluble
MGSDKIHHHHHHGDGNITTENIPVSEYDCLELEGGGMVVNYTQSDAPEGLEIKTDRNIFEKYEFNVENHKLKIRPKKEFRKHTNFRPTEFMVTANSRNLKKLAAAGSTHVNINSPLQAEEFEAGLAGSGIIQFHDTASFTNLKIEIAGSGDFVGHKVYCEELNGDMAGSNTIVLGGTVGIAEFSIAGSGTVRAFDCTMDELECKIAGSGDIEAFVVNKIKAEIAGSGSVKYKGDPQDIQKKVMGSGKIEKVE | not soluble
MGSDKIHHHHHHMVLSGSPYERGFQHGNRFADLISQALDRRLASLSAADLSQAHKRASDVLATIDVMAPHVGTELRGIADGAGREVSGIVLRSSFELLASPTATGCSGLAVQTRDGALIAQNWDGPLGSDVEQALFIHVGTSGFEFATVAAVGALGWVGFNRAGFGFVNNDLVLKSRCDGIPSQIVRRVFLGCPDVNAAVEAAKSLPHMAGRAYLFGDASNKIASIEVSARHGVSVCRSGSFLAHTNHALNDQIRADEDAELLARQYPSSQKRLEVLKMREAGCADACEVMDILRDRTNAPDSVCKQTSLREPTQTAFSVVMQCRNRTLFLVRGMPSATEYQRISL | not soluble
MSGRHEACITPARRARQCLNRGNTMRHLPLFSLMLFPASVYAADSDGANLN | not soluble
